The target of the assay is GST fused to Las17 fragment P8-12 (GST-P8-12) (S. cerevisiae) (UniProt Q12446). Put plainly: pull-down.

As a reminder, the Kd is the equilibrium constant for the complex coming apart.

UniProt Q12446, sequence (Q12446 300-404): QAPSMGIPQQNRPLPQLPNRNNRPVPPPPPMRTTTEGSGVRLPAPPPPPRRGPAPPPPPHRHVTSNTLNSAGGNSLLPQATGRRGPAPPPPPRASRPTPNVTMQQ

Take “hexahistidine-tagged Sla1 fragment spanning the SH3 domains 1 and 2 (His-Sla1-SH3-1-2) (domain or fragment)”: the Kd amounted to 56 nM. In other words, the double-digit nanomolar range.

Values taken from publication PMC3484103.
